# Measurements taken from patent publication US12291562B2, “Reagents and assays using modified integrin domains” (Rush University Medical Center, priority 2019, dated 2025).
# B1: Clone 8: clone from naïve human scFv phage display library enriched on BZ348014 (Table 5); not the VHH clone 8 (protein)
# scFv: DVQLVESGGGLVQPGGSLRLSCTASGFTFSNYAMNWVRQAPGKGLEWVSVISSSGSRRNYADSVKGRFTISRDNAKSTLYLQMNSLKPEDTAVYYCAKVRDAGYYRWNLNDLDYRGQGTQVTVSS
# modifications: Clone 8
# B2: Clone 11: scFv phage clone, VH-linker-VK, SEQ ID NO: 65 (protein)
# scFv: EVQLVESGGGVVQPGRSLRLSCAATGFTFSNYGIHWVRQAPGKGLEWVAVTSYDGSNKYYADSVKGRFTISRDNSKNTLYLQMNSLRVEDTAVYYCAKDRGYYTYVFDYWGRGTLVTVSSGEGKSSGSGSESKASDVVMTQTPLSLPVTPGEPAAISCRSSQSLLHSNGYNYLDWYLQKPGQSPQLLIYLGSNRASGVPDRFSGSGSGTDFTLKISRVEAEDVGVYYCMQAVQTVD
# modifications: Clone 11
# B3: Clone 14: scFv phage clone, VK-Linker-VH, SEQ ID NO: 67 (protein)
# scFv: DVVMTQSPLSLPATLGQPASISCRSSQSLVYTDGNTYLNWFQQRPGQSPRRLIYKVSNRDSGVPDRFSGSGSGTHFTLKISRVEAEDVGVYYCMQGTHWPPTFGQGTKVEIKEGKSSGSGSESKASEVQLVQSGAEVKKPGASVKVSCKASGGTFSSYAISWVRQAPGQGLEWMGGIIPIFGTANYAQKFQGRVTITADESTSTAYMELSSLRSEDTAVYYCASSGVDYWGQGTLVTVSS
# modifications: Clone 14
# B4: Clone 5: scFv phage clone, VL-Linker-VH, SEQ ID NO: 63 (protein)
# scFv: SSELTQDPAVSVALGQTVRITCQGDSLRSYYASWYQQKPGQAPVLVIYGKNNRPSGIPDRFSGSTSGNFASLTITGAQAEDGADYYCHSRDSSGNHLVFGGGTKLTVLGEGKSSGSGSESKASEVQLVQSGAEVKKPGESLKISCKGSGYSFTSYWIGWVRQMPGKGLEWMGIIYPGDSDTRYSPSFQGQVTISADKSISTAYLQWSSLKASDTAMYYCARRARGAFDIWGQGTLVTVSS
# modifications: Clone 5
# B5: Clone 13: phage clone, VH only, SEQ ID NO: 66 (antibody, V domains shown)
# VH: EVQLLESGGGLVQPGGSLRLSCAASGFTFSSDLMSWVRQAPGKGLEWVSAISGSGGSTYYADSVKGRFTISRDNSKNTLYLQMNSLRAEDTAVYYCAKNEVIFDYWGQGTLVTVSSASTKGLSMFDYWGQGTKVEIK
# modifications: Clone 13
# B6: Clone 6: scFv phage clone, VL-linker-VH, SEQ ID NO: 64 (protein)
# scFv: QSVLTQPPSASGTPGQRVTISCSGSSSNIGSNYVSWYQQLPGTAPKLLIYDNNKRPSGIPDRFSGSKSGTSATLGITGLQTGDEADYYCGTWDSSLSALYVFGAGTKLTVLGEGKSSGSGSESKASQVQLQESGPGLVKPSETLSLTCSVSGGSTSSYYWSWIRQPPGKGLEWIGYISNSGSTNYNPSLKSRVTMSIDTSNNQFSLKLSSVTAADTAVYYCASHLGATWRWGQGTLVTVSS
# modifications: Clone 6
# Biological target: T1, BZ348014 (CD11b A-domain CD11bA-D242A/F275S/F302G) (Homo sapiens, UniProt P11215, D258A/F291S/F318G)
# T1 construct: MGS-8XHis-SG (N); TEV site (ENLYFQ) followed by GS linker (N); made in house; host or cells: E. coli BL21DE3 (pET-11d)
# Assay: Phage ELISA on BZ348014
# Assay type: binding
# Conditions: Table 5; scFv phage diluted 1:5; after 2 rounds of enrichment
# From the text: A naïve human scFv phage display library and VHH phage display library were screened against several integrin targets of interest. The screen involved phage ELISA followed by sequencing.
# Example experiment: A diverse naïve human scFv phage display library (Neoclone, LLC, Madison, WI) was enriched on BZ348014.
# (§1) After 2 rounds of enrichment against the primary target, positive binders were identified by phage ELISA and analyzed by restriction mapping & sequencing for identification of unique clones. Small scale phage growths were diluted 1:5 in TBS+casein. Nunc Maxi-Sorp strip wells were coated at ˜5 μg/ml of each test protein overnight at 4° C. and blocked with TBS+casein. The diluted phage were applied and allowed to bind for 1 hour with shaking. The wells were washed 4 times with TBS+0.05% Tween20 and twice with TBS. Bound phage were detected by incubation for 1 hour with anti-M13-HRP and after washing as above, developed with TMB. Absorbance at 450 nm was read after acidification of the wells.
# T1 sequence (P11215 148-337 D258A/F291S/F318G): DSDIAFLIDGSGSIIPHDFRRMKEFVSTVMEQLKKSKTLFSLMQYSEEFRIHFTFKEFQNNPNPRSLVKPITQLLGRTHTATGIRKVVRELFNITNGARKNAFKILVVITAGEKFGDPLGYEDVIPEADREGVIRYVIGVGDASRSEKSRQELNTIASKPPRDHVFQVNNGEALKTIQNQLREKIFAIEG
row,Molecule,"ELISA absorbance at 450 nM, BZ348014"
1,B1,0.060
2,B2,0.628

# System: not listed separately
# Assay: Phage ELISA on blocked well
# Assay type: binding
# Conditions: Table 5, scFv phage diluted 1:5
# Protocol: as §1
row,Molecule,"ELISA absorbance at 450 nM, Blocked well"
1,B3,0.044
2,B4,0.045
3,B5,0.043
4,B6,0.041
5,B1,0.047
6,B2,0.043

# Biological target: T2, BZ348014 antigen (Homo sapiens, UniProt P11215, D258A/F291S/F318G)
# T2 construct: MGS-8XHis-SG (N); TEV site (ENLYFQ) followed by GS linker (N); made in house; host or cells: E. coli BL21DE3 (pET-11d)
# Assay: VHH phage display library screening
# Assay type: binding
# Conditions: not given
# Protocol: A panning and enrichment of the BZ348014 antigen against a VHH phage display library (Neoclone, LLC, Madison, WI) was also conducted in an identical manner to the human scFv phage display library screen. One unique binder was identified, clone 8.
# T2 sequence (P11215 148-337 D258A/F291S/F318G): as above
row,Molecule,Binder identified by panning and enrichment against BZ348014 antigen
1,B1,unique binder

# System: CD11b A-domain polypeptides
# Assay: Conformation selectivity in counterscreen and dilution series ELISA
# Assay type: binding, human
# Conditions: conclusion from ELISA data
# Protocol: as §1
# High binding clones were included in a counterscreen ELISA against other CD11b A-domain polypetides which produced the following data:
# To confirm binding, a dilution series experiment was carried out. Select clones were subjected to a dilution series which generated the following data: […]
row,Molecule,Selectivity of binding to CD11b A-domain polypeptides mutationally stabilized in active conformation over the other conformations
1,B3,bound selectively
2,B4,limited or no selectivity
3,B5,bound selectively
4,B6,bound selectively
